# From the supplement of paper PMC9112550, “Optimization of the antimicrobial peptide Bac7 by deep mutational scanning” (BMC Biology, 2022)
# Tested on: Escherichia coli TOP10
# Experiment: shrunken log2 fold change of peptide-encoding DNA abundance (4.5 h post-induction vs induction); higher = less antimicrobial activity (less host growth inhibition)
# Details: time post-induction: 4.5 h; library: site-saturation at positions 5, 18, 19, 20
# 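Further: peptides expressed intracellularly from a pBAD plasmid library in pooled LB shake-flask culture, induced with 0.3% L-arabinose, DNA abundance read by NGS, three biological replicates, DESeq2 with apeglm shrinkage.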
row,Sequence,shrunken log2 fold change
1,RRIRCRPPRLPRPRPRPPIPPRP,0.31
2,RRIRCRPPRLPRPRPRPPKCPRP,0.203
3,RRIRCRPPRLPRPRPRPPKQPRP,0.123
4,RRIRCRPPRLPRPRPRPPLHPRP,0.135
5,RRIRCRPPRLPRPRPRPPLWPRP,0.32
6,RRIRCRPPRLPRPRPRPPMMPRP,-0.0549
7,RRIRCRPPRLPRPRPRPPMNPRP,-0.0519
8,RRIRCRPPRLPRPRPRPPMRPRP,0.945
9,RRIRCRPPRLPRPRPRPPNRPRP,0.444
10,RRIRCRPPRLPRPRPRPPPVPRP,1.24
11,RRIRCRPPRLPRPRPRPPQTPRP,0.665
12,RRIRCRPPRLPRPRPRPPRAPRP,0.934
13,RRIRCRPPRLPRPRPRPPRIPRP,0.48
14,RRIRCRPPRLPRPRPRPPRTPRP,0.818
15,RRIRCRPPRLPRPRPRPPVDPRP,0.787
16,RRIRCRPPRLPRPRPRPPWMPRP,0.248
17,RRIRCRPPRLPRPRPRPPYFPRP,-0.07
18,RRIRCRPPRLPRPRPRPPYHPRP,-0.334
19,RRIRCRPPRLPRPRPRPQCDPRP,-0.264
20,RRIRCRPPRLPRPRPRPQCTPRP,-0.654
21,RRIRCRPPRLPRPRPRPQDFPRP,0.0295
22,RRIRCRPPRLPRPRPRPQECPRP,-0.0139
23,RRIRCRPPRLPRPRPRPQEDPRP,-0.0835
24,RRIRCRPPRLPRPRPRPQKNPRP,-0.281
25,RRIRCRPPRLPRPRPRPQKRPRP,0.0237

row,Sequence,shrunken log2 fold change
1,RRIRCRPPRLPRPRPRPQLYPRP,-0.236
2,RRIRCRPPRLPRPRPRPQMIPRP,-1.55
3,RRIRCRPPRLPRPRPRPQPMPRP,-0.0366
4,RRIRCRPPRLPRPRPRPQPWPRP,0.125
5,RRIRCRPPRLPRPRPRPQRLPRP,0.44
6,RRIRCRPPRLPRPRPRPQSAPRP,-0.0724
7,RRIRCRPPRLPRPRPRPQSWPRP,0.69
8,RRIRCRPPRLPRPRPRPQTNPRP,-0.374
9,RRIRCRPPRLPRPRPRPQVVPRP,-0.266
10,RRIRCRPPRLPRPRPRPQYFPRP,-0.252
11,RRIRCRPPRLPRPRPRPQYQPRP,-0.697
12,RRIRCRPPRLPRPRPRPRDPPRP,0.864
13,RRIRCRPPRLPRPRPRPREEPRP,1.43
14,RRIRCRPPRLPRPRPRPREGPRP,1.09
15,RRIRCRPPRLPRPRPRPRFQPRP,0.234
16,RRIRCRPPRLPRPRPRPRFVPRP,0.15
17,RRIRCRPPRLPRPRPRPRFWPRP,0.167
18,RRIRCRPPRLPRPRPRPRGEPRP,0.435
19,RRIRCRPPRLPRPRPRPRHIPRP,-0.28
20,RRIRCRPPRLPRPRPRPRHMPRP,-0.185
21,RRIRCRPPRLPRPRPRPRHNPRP,-0.374
22,RRIRCRPPRLPRPRPRPRHTPRP,-0.0438
23,RRIRCRPPRLPRPRPRPRIKPRP,0.0662
24,RRIRCRPPRLPRPRPRPRKPPRP,0.218
25,RRIRCRPPRLPRPRPRPRMKPRP,0.0252

row,Sequence,shrunken log2 fold change
1,RRIRCRPPRLPRPRPRPRMRPRP,0.542
2,RRIRCRPPRLPRPRPRPRNSPRP,-0.113
3,RRIRCRPPRLPRPRPRPRNWPRP,0.366
4,RRIRCRPPRLPRPRPRPRVMPRP,0.278
5,RRIRCRPPRLPRPRPRPRVTPRP,0.23
6,RRIRCRPPRLPRPRPRPRYCPRP,-0.654
7,RRIRCRPPRLPRPRPRPRYIPRP,-0.035
8,RRIRCRPPRLPRPRPRPSAHPRP,-0.0707
9,RRIRCRPPRLPRPRPRPSAWPRP,0.0978
10,RRIRCRPPRLPRPRPRPSAYPRP,-0.406
11,RRIRCRPPRLPRPRPRPSCAPRP,-0.0944
12,RRIRCRPPRLPRPRPRPSCDPRP,-0.0533
13,RRIRCRPPRLPRPRPRPSCFPRP,-0.205
14,RRIRCRPPRLPRPRPRPSDQPRP,-0.0132
15,RRIRCRPPRLPRPRPRPSDTPRP,-0.134
16,RRIRCRPPRLPRPRPRPSEHPRP,-0.236
17,RRIRCRPPRLPRPRPRPSFPPRP,-0.608
18,RRIRCRPPRLPRPRPRPSGWPRP,0.0712
19,RRIRCRPPRLPRPRPRPSHGPRP,-0.33
20,RRIRCRPPRLPRPRPRPSHNPRP,-0.628
21,RRIRCRPPRLPRPRPRPSHPPRP,-0.0807
22,RRIRCRPPRLPRPRPRPSKQPRP,-0.209
23,RRIRCRPPRLPRPRPRPSLWPRP,-0.0313
24,RRIRCRPPRLPRPRPRPSMKPRP,-0.567
25,RRIRCRPPRLPRPRPRPSNLPRP,-0.425

row,Sequence,shrunken log2 fold change
1,RRIRCRPPRLPRPRPRPSNPPRP,0.442
2,RRIRCRPPRLPRPRPRPSRVPRP,0.247
3,RRIRCRPPRLPRPRPRPSSEPRP,-0.284
4,RRIRCRPPRLPRPRPRPSSRPRP,-0.459
5,RRIRCRPPRLPRPRPRPSTQPRP,-0.495
6,RRIRCRPPRLPRPRPRPSVKPRP,-0.765
7,RRIRCRPPRLPRPRPRPSWHPRP,-0.488
8,RRIRCRPPRLPRPRPRPTAGPRP,0.411
9,RRIRCRPPRLPRPRPRPTAPPRP,0.826
10,RRIRCRPPRLPRPRPRPTATPRP,0.299
11,RRIRCRPPRLPRPRPRPTCWPRP,0.15
12,RRIRCRPPRLPRPRPRPTDNPRP,-0.58
13,RRIRCRPPRLPRPRPRPTDPPRP,0.102
14,RRIRCRPPRLPRPRPRPTEQPRP,-0.304
15,RRIRCRPPRLPRPRPRPTERPRP,0.211
16,RRIRCRPPRLPRPRPRPTFTPRP,-0.416
17,RRIRCRPPRLPRPRPRPTGCPRP,-0.0358
18,RRIRCRPPRLPRPRPRPTGLPRP,0.106
19,RRIRCRPPRLPRPRPRPTGQPRP,0.123
20,RRIRCRPPRLPRPRPRPTHDPRP,0.302
21,RRIRCRPPRLPRPRPRPTHGPRP,0.000601
22,RRIRCRPPRLPRPRPRPTHSPRP,0.288
23,RRIRCRPPRLPRPRPRPTICPRP,-0.142
24,RRIRCRPPRLPRPRPRPTIDPRP,0.0362
25,RRIRCRPPRLPRPRPRPTIYPRP,-0.644

row,Sequence,shrunken log2 fold change
1,RRIRCRPPRLPRPRPRPTKEPRP,-0.0808
2,RRIRCRPPRLPRPRPRPTKFPRP,-0.305
3,RRIRCRPPRLPRPRPRPTKKPRP,-0.000922
4,RRIRCRPPRLPRPRPRPTLGPRP,0.168
5,RRIRCRPPRLPRPRPRPTLMPRP,-0.0222
6,RRIRCRPPRLPRPRPRPTPCPRP,0.281
7,RRIRCRPPRLPRPRPRPTPRPRP,0.987
8,RRIRCRPPRLPRPRPRPTQQPRP,-0.0719
9,RRIRCRPPRLPRPRPRPTRFPRP,0.696
10,RRIRCRPPRLPRPRPRPTRLPRP,0.558
11,RRIRCRPPRLPRPRPRPTRSPRP,0.643
12,RRIRCRPPRLPRPRPRPTTQPRP,0.0242
13,RRIRCRPPRLPRPRPRPVDAPRP,0.323
14,RRIRCRPPRLPRPRPRPVDVPRP,-0.375
15,RRIRCRPPRLPRPRPRPVECPRP,-0.142
16,RRIRCRPPRLPRPRPRPVGKPRP,0.0374
17,RRIRCRPPRLPRPRPRPVGMPRP,0.0711
18,RRIRCRPPRLPRPRPRPVHRPRP,-0.319
19,RRIRCRPPRLPRPRPRPVIFPRP,-0.408
20,RRIRCRPPRLPRPRPRPVIWPRP,0.0816
21,RRIRCRPPRLPRPRPRPVLPPRP,2
22,RRIRCRPPRLPRPRPRPVLRPRP,0.183
23,RRIRCRPPRLPRPRPRPVMKPRP,-0.342
24,RRIRCRPPRLPRPRPRPVNAPRP,-0.0831
25,RRIRCRPPRLPRPRPRPVNIPRP,-0.971

row,Sequence,shrunken log2 fold change
1,RRIRCRPPRLPRPRPRPVRKPRP,0.0744
2,RRIRCRPPRLPRPRPRPVSFPRP,-0.228
3,RRIRCRPPRLPRPRPRPVSLPRP,-0.379
4,RRIRCRPPRLPRPRPRPVTNPRP,-0.0299
5,RRIRCRPPRLPRPRPRPVTVPRP,-0.484
6,RRIRCRPPRLPRPRPRPVTWPRP,-0.417
7,RRIRCRPPRLPRPRPRPVVTPRP,-0.0488
8,RRIRCRPPRLPRPRPRPWAAPRP,-0.0941
9,RRIRCRPPRLPRPRPRPWALPRP,0.0591
10,RRIRCRPPRLPRPRPRPWCIPRP,-0.308
11,RRIRCRPPRLPRPRPRPWDWPRP,0.313
12,RRIRCRPPRLPRPRPRPWFAPRP,-0.183
13,RRIRCRPPRLPRPRPRPWGAPRP,0.0457
14,RRIRCRPPRLPRPRPRPWHRPRP,0.0363
15,RRIRCRPPRLPRPRPRPWLMPRP,-0.159
16,RRIRCRPPRLPRPRPRPWLRPRP,-0.0383
17,RRIRCRPPRLPRPRPRPWNTPRP,-0.575
18,RRIRCRPPRLPRPRPRPWQPPRP,0.0636
19,RRIRCRPPRLPRPRPRPWRYPRP,0.0621
20,RRIRCRPPRLPRPRPRPWSQPRP,-0.0595
21,RRIRCRPPRLPRPRPRPWTAPRP,-0.212
22,RRIRCRPPRLPRPRPRPWTRPRP,0.0156
23,RRIRCRPPRLPRPRPRPWVNPRP,-0.19
24,RRIRCRPPRLPRPRPRPWWDPRP,0.00335
25,RRIRCRPPRLPRPRPRPWWVPRP,-0.208
